This is an account of results in US20210130473A1 (SILVERBACK THERAPEUTICS, published 2021).

The target of assay [1] is T1, human Fc-fused human ASGR1 extracellular domain (human, UniProt P07306 62-291).
T1 construct: extracellular domain; also called human Fc-fused ASGR1 ECD; not shown: human Fc
T1 sequence (looked up): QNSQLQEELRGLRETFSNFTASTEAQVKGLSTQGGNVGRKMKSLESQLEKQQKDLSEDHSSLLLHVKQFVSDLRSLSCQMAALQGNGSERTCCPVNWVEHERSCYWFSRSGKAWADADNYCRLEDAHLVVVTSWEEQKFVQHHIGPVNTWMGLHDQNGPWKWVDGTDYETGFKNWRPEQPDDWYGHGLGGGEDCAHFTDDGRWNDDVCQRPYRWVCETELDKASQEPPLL
In words: Octet binning, hFc-ASGR1 ECD on AHC sensors; competitor: ASGR1 mAb-A. Here is the method:
The interactions of the anti-ASGR1 antibodies of this disclosure and control mAbs with human ASGR1 ECD were analyzed using the OCTET® Data Analysis Software 9.0 (ForteBio).
A general note: In BLI a coated tip is dipped into the sample, and binding shifts an interference pattern.

Assay [2] concerns the target T2, human ASGR1 (asialoglycoprotein receptor 1) on cells (human, UniProt P07306 1-291).
T2 construct: whole, on cells; also called HepG2 cells; CHO-S cells transfected with human ASGR1 full length DNA
T2 sequence (looked up): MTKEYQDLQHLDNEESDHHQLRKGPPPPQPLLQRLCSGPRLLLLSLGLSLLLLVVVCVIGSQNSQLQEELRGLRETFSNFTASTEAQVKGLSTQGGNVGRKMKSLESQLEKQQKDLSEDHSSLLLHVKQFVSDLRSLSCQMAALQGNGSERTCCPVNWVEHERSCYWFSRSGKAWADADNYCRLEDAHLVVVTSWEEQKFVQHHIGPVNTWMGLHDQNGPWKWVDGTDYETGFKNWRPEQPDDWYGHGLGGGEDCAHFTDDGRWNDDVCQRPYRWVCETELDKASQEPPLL
In words: flow cytometry on HepG2 cells, anti-human IgG PE secondary, MFI (Geo Mean). The method, then:
Briefly, 5×10⁴ HepG2 cells/well were contacted with titrating concentrations of anti-ASGR1 antibodies in FACS Buffer (FB: PBS+2% FBS+1 mM CaCl₂)) for 30 minutes at 4° C. Cells were washed twice in FB, then incubated in anti-human IgG PE secondary for 30 minutes at 4° C. Cells were washed twice in FB, then analyzed by flow cytometry.
Background: In flow cytometry, cells or beads pass a laser one at a time.

The target of assay [3] is T3, rat ASGR1 on CHO-S cells (rat, UniProt P02706 1-284).
T3 construct: whole, on cells
T3 sequence (looked up): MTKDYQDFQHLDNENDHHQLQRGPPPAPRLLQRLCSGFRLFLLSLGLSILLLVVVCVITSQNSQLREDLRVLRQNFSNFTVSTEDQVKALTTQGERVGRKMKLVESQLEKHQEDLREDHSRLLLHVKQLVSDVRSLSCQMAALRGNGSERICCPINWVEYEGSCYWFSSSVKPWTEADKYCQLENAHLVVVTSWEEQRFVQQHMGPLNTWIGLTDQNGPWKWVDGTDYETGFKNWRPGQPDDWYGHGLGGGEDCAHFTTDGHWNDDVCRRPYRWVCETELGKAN
Put plainly: Guava flow cytometry on CHO-S cells expressing rat ASGR1. The method, then:
(§1) Anti-human ASGR1 antibodies of this disclosure were examined for cross-reactivity with Cynomolgus macaque and rat ASGR1. Briefly, sequence encoding Cynomolgus macaque or rat ASGR1 was transiently transfected into CHO-S cells. Transfected cells were before performing cell binding assay. A total of about 1.5×10⁴ transfected cells/well were added to 96-well V-bottom assay plate, incubated at 37° C., 5% CO2 for 48-72 hours, and then washed with culture medium before adding 100 μl of each ASGR1 antibody at different concentrations starting from 100 nM and 3-fold dilutions to a total of eight wells. The cells with antibody were incubated for 40 minutes at 4° C., then washed three times with 200 μl of fresh culture medium. To each well was added 50 μl PE conjugated goat anti-human Fc (SouthemBiotech) at 1:200 dilution in culture medium and then incubated at 4° C. for 20 minutes. After washing the plate once, the treated cells were resuspended in 200 μl culture medium and then the stained cells were analyzed on GUAVA® using Incyte software.

Assay [4] deals with T3, rat ASGR1 on CHO-S cells. In words: Guava flow cytometry on CHO-S cells expressing rat ASGR1 (repeat of Table 16). Here is the method: as §1, with “Briefly,” for “Anti-human ASGR1 antibodies of this disclosure were examined for cross-reactivity with Cynomolgus macaque and rat ASGR1. Briefly,”, “(SouthernBiotech)” for “(SouthemBiotech)”
as §1

Assay [5] concerns the target T4, Cynomolgus macaque ASGR1 on CHO-S cells (Cynomolgus macaque).
T4 construct: whole, on cells; also called Cynomologous ASGR1
In words: Guava flow cytometry on CHO-S cells expressing cynomolgus ASGR1. Here is the method: as §1

Assay [6] deals with T4, Cynomolgus macaque ASGR1 on CHO-S cells. In words: Guava flow cytometry on CHO-S cells expressing cynomolgus ASGR1 (repeat of Table 15). The method, then: as §1
The target in another assay is T5, rat CLEC10A (rat, UniProt P49301 59-306, limits assumed).
T5 construct: the assay is not described
T5 sequence (looked up): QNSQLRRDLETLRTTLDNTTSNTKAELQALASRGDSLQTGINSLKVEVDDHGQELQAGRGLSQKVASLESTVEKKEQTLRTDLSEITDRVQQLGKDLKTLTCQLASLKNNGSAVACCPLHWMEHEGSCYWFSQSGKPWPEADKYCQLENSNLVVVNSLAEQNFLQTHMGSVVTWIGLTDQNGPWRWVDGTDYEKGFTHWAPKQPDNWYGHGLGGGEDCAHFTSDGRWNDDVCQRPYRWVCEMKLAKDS
Put plainly: not described.

Assay [7] concerns the target T6, His-tagged human ASGR1 extracellular domain (human, UniProt P07306 62-291).
T6 construct: extracellular domain; also called His-tagged human ASGR1 ECD; human ASGR1 ECD; not shown: His tag
T6 sequence (looked up): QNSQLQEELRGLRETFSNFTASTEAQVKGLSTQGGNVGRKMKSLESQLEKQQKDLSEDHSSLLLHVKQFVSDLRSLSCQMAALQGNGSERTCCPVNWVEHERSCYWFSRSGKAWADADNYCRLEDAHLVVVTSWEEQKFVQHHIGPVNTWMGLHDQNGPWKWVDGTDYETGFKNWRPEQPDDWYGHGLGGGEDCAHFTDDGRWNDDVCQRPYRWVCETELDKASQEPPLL
In words: Octet, His-tagged ASGR1 ECD on Penta-His sensors; N = association not sensitive to Ca2+ (binds also without calcium). Here is the method:
Analysis of ASGR1 antibody binding to human ASGR1 ECD was performed using the OCTET® Red 96 instrument and analyzed using the OCTET®Data Analysis Software 9.0 (ForteBio). His-tagged human ASGR1 ECD was immobilized to OCTET® Penta-His biosensors and ASGR1 antibodies were subjected to avidity binding under the conditions described above. Association with the ASGR1 ECD was measured by the rate of and increase in magnitude of signal response at a given antibody concentration. Dissociation from the ASGR1 ECD was measured the rate of loss in signal upon removal of the antibody and further incubation with or without Ca²⁺.

The target of assay [8] is T3, rat ASGR1 on CHO-S cells. Put plainly: Guava flow cytometry on CHO-S cells expressing rat ASGR1. This is another data set of the same source.

B1: H8K (antibody, V domains shown)
VH: DVQLQESGPGLVKPSQSLSLTCTVTGFSITSDYAWNWIRQFPGNQLEWMGYRSYRGSTSYNPSLKSRISITRDTSKNQFFLQLNSVTTEDTATYYCARRGYYGSSSHWYFDVWGAGTTVTVSS
VL: DIQMTQSPASLSASVGETVTITCRASENIYSYLAWYQQKQGKSPQLLVYNAKTLAEGVPSRFSGSGSGTQFSLKINSLQPEDFGSYYCQHHYGTPLTFGSGTKLELK
notes: parental mouse hybridoma antibody; also called mAb H8K
Consider B1, for which the binding result in assay [1] and in assay [2] was “binds” in each case.

B2: L4L (antibody, V domains shown)
VH: DVQLQESGPGLVKPSQSLSLTCTVTGYSITSDYAWNWIRQFPGNKLEWMGYISYSGSTRYNPSLKSRISITRDTSKNQFFLQLNSVTTEDTATYYCARRYRYDEGYGMDYWGQGTSVTVSS
VL: DIQMTQSPASLSVFVGEIVTITCRASENIYSNLAWYQQKQGKSPQLLVYAATNLADGVPSRFTGSGSGTQFSLKINSLQSEDFGNYYCQHFWGTPPWTFGGGTKLEIK
notes: parental mouse hybridoma antibody; also called mAb L4L
Take B2: the binding result in assay [1] and in assay [2] was “binds” throughout.

B3: G2D (antibody, V domains shown)
VH: EVQLQQSGPELVKPGASVKISCKASGYSFTGYYMHWVKQSHVKSLEWIGRINPNNGATNYNQNFKDKASLTVDKSSSTAYMEFHSLTSEDSAVYYCTSVNFYYWGQGTTLTVSS
VL: DIKMTQSPSSMYASLGERVTITCKASQVINSYLSWFQQKPGKSPETLIYRANTLVDGVPSRFSGSGSGQDYSLTISSLEYEDLGIYYCLQYAEFPYTFGGGTKLEIK
notes: parental mouse hybridoma antibody; also called mAb G2D
A word on the EC50: it is the concentration giving half of the maximal effect. A low value points to a more potent agent. One may read the EC50 (read off the curve) as the concentration needed to bring the measured effect to its halfway point. With B3, the EC50 in the assay with rat ASGR1 on CHO-S cells [3] amounted to 0.37 nM; with rat ASGR1 on CHO-S cells [4] it was 0.37 nM; in assay [5] it was 0.47 nM; in [6], 0.47 nM. Besides, the binding result with rat CLEC10A is listed as “no binding”. In addition, the “EC50 (read off the curve)” value in assay [2] is roughly 0.2 µg/mL.

B4: K2E (antibody, V domains shown)
VH: QVQLQQSAAELARPGASVKMSCKASGYTFTSYTMHWVKQRPGQGLEWIGYISPSSGYTEYNQKFKDKTTLTADKSSSTAYMQLSSLTSEDSAVYYCARKFDYWGQGTTLTVSS
VL: DIKMTQSPSSMYASLGERVTITCKASQDINSYLSWFQQKPGKSPKTLIYRANRLVDGVPSRFSGSGSGQDFSLTISSLEYEDMGIYYCLQYDEFPFTFGSGTKLEIK
notes: parental mouse hybridoma antibody; also called mAb K2E
With B4, the EC50 stood at 0.52 nM with rat ASGR1 on CHO-S cells [3], 0.52 nM with rat ASGR1 on CHO-S cells [4], 0.68 nM in assay [5] and 0.68 nM in assay [6]. Also, the “EC50 (read off the curve)” value in assay [2] is roughly 0.3 µg/mL.

B5: J4F (antibody, V domains shown)
VH: QVQLQQSGDDLVKPGASVKLSCKASGYTFTSYWINWIKQRPGQGLEWIGRIVPGSGSTYYNEMFKDKATLTVDTSSSTAYIQLSSLSSEDSAVYFCARKPNFDVWGAGTTVTVSS
VL: DIVMTQSQKFMSTSVGDRVSVTCKASQNVGTNVAWYQQKPGQSPKAVIYSASYRFSGVPDRLTGSGSGTDFTLTITNVQSEDLAEYFCQQYNSYPLTFGAGTKLELK
notes: parental mouse hybridoma antibody; also called mAb J4F
Regarding B5, the EC50 is 0.62 nM in the assay with rat ASGR1 on CHO-S cells [3], 0.62 nM with rat ASGR1 on CHO-S cells [4], 0.67 nM in [5] and 0.67 nM in assay [6]. The “EC50 (read off the curve)” value in [2] was roughly 0.3 µg/mL.

B6: hzL4L-7 (antibody, IgG1, V domains shown)
VH: QVQLQESGPGLVKPSQTLSLTCTVSGYSISSDYAWNWIRQHPGKGLEWIGYISYSGSTRYNPSLKSRVTITRDTSKNQFSLKLSSVTAADTAVYYCARRYRYDEGYGMDYWGQGTTVTVSS
VL: DIQMTQSPSSLSASVGDRVTITCRASENIYSNLAWYQQKPGKAPKLLIYAATNLADGVPSRFSGSGSGTDFTLTISSLQPEDFATYYCQHFWGTPPWTFGGGTKVEIK
notes: IgG1, kappa
On to B6, for which the binding result is given as “binds” in assay [7] and “no binding (tested: 100 nM highest concentration)” with rat ASGR1 on CHO-S cells [8]. Besides, the EC50 in assay [5] and in [6] was 0.39 nM in each case.

B7: hzH8K-1 (antibody, IgG1, V domains shown)
VH: QVQLQESGPGLVKPSQTLSLTCTVSGGSISSDYAWNWIRQHPGKGLEWIGYRSYRGSTSYNPSLKSRVTISVDTSKNQFSLKLSSVTAADTAVYYCARRGYYGSSSHWYFDVWGQGTTVTVSS
VL: DIQMTQSPSSLSASVGDRVTITCRASENIYSYLAWYQQKPGKAPKLLIYNAKTLAEGVPSRFSGSGSGTDFTLTISSLQPEDFATYYCQHHYGTPLTFGGGTKVEIK
notes: IgG1, kappa
Turning to B7, the binding result with rat ASGR1 on CHO-S cells [8] is recorded as “no binding (tested: 100 nM highest concentration)”. Besides, the EC50 in [5] and in assay [6] was 0.66 nM in each case.
